Source: US20250179187A1, “ANTI PD-L2 ANTIBODY” (REJUVERON SENESCENCE THERAPEUTICS AG, priority 2022, published 2025)

T1: human PD-L2 antigen (Homo sapiens, UniProt Q9BQ51)
T1 sequence (Q9BQ51 20-273): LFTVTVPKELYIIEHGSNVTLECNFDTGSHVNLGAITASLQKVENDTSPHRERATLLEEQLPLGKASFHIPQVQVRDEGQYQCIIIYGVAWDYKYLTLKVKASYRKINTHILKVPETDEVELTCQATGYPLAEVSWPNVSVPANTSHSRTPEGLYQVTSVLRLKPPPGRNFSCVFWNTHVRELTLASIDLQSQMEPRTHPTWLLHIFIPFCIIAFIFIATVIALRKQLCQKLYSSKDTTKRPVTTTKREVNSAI

B1: VH1/VK1: humanized anti-PD-L2 variant; SEQ ID NO: 2/SEQ ID NO: 10 (antibody, V domains shown)
VH: QVQLVQSGAELKKPGSSVKVSCKASGYAFSNYFIEWVKQPPGKGLEWIGLNIPGSGGSNYAEKFKGRATITADKSTSTAYMELSSLTSEDSAVYFCARRRLPPDWYFDVWGQGTTVTVSS
VL: DVVMTQSPLSLPVTLGQPASISCRSSQSLVHSDGNTYLHWYQQKPGQPPKLLIYKVSNRFSGVPDRFSGSGSGTDFTLKISRVEAEDVGVYFCSQSTHVPWTFGGGTKVEIK
B2: VH2/VK2: humanized anti-PD-L2 variant; SEQ ID NO: 3/SEQ ID NO: 11 (antibody, V domains shown)
VH: QVQLVQSGAEVKKPGSSVKVSCKASGYAFSNYFIEWVKQPPGKGLEWIGLNIPGSGGSNYAEKFKGRATITADKSTSTAYMELSSLRSEDSAVYFCARRRLPPDWYFDVWGQGTTVTVSS
VL: DVVMTQSPLSLPVTLGQPASISCRSSQSLVHSDGNTYLHWYQQKPGQPPKLLIYKVSNRFSGVPDRFSGSGSGTDFTLKISRVEAEDVGVYYCSQSTHVPWTFGGGTKVEIK
B3: VH2/VK3: humanized anti-PD-L2 variant; SEQ ID NO: 3/SEQ ID NO: 12 (antibody, V domains shown)
VH: QVQLVQSGAEVKKPGSSVKVSCKASGYAFSNYFIEWVKQPPGKGLEWIGLNIPGSGGSNYAEKFKGRATITADKSTSTAYMELSSLRSEDSAVYFCARRRLPPDWYFDVWGQGTTVTVSS
VL: DVVMTQSPLSLPVTLGQPASISCRSSQSLVHSGGNTYLHWYQQKPGQPPKLLIYKVSNRFSGVPDRFSGSGSGTDFTLKISRVEAEDVGVYFCSQSTHVPWTFGGGTKVEIK
B4: VH7/VK3: humanized anti-PD-L2 variant; SEQ ID NO: 7/SEQ ID NO: 12 (antibody, V domains shown)
VH: QVQLVQSGAELKKPGSSVKVSCKASGYAFSNYFIEWVKQPPGKGLEWIGLNIPGSGGSNYAEKFKGRATITADKSTSTAYMELSSLRSEDTAVYYCARRRLPPDWYFDVWGQGTTVTVSS
VL: DVVMTQSPLSLPVTLGQPASISCRSSQSLVHSGGNTYLHWYQQKPGQPPKLLIYKVSNRFSGVPDRFSGSGSGTDFTLKISRVEAEDVGVYFCSQSTHVPWTFGGGTKVEIK
B5: VH3/VK2: humanized anti-PD-L2 variant; SEQ ID NO: 4/SEQ ID NO: 11 (antibody, V domains shown)
VH: QVQLVQSGAEVKKPGSSVKVSCKASGYAFSNYFIEWVKQPPGKGLEWIGLNIPGSGGSNYAEKFKGRVTITADKSTSTAYMELSSLRSEDSAVYFCARRRLPPDWYFDVWGQGTTVTVSS
VL: DVVMTQSPLSLPVTLGQPASISCRSSQSLVHSDGNTYLHWYQQKPGQPPKLLIYKVSNRFSGVPDRFSGSGSGTDFTLKISRVEAEDVGVYYCSQSTHVPWTFGGGTKVEIK
B6: VH7/VK1: humanized anti-PD-L2 variant; SEQ ID NO: 7/SEQ ID NO: 10 (antibody, V domains shown)
VH: QVQLVQSGAELKKPGSSVKVSCKASGYAFSNYFIEWVKQPPGKGLEWIGLNIPGSGGSNYAEKFKGRATITADKSTSTAYMELSSLRSEDTAVYYCARRRLPPDWYFDVWGQGTTVTVSS
VL: DVVMTQSPLSLPVTLGQPASISCRSSQSLVHSDGNTYLHWYQQKPGQPPKLLIYKVSNRFSGVPDRFSGSGSGTDFTLKISRVEAEDVGVYFCSQSTHVPWTFGGGTKVEIK
B7: VH0/VK1: anti-PD-L2 variant on hIgG1; SEQ ID NO: 1/SEQ ID NO: 10 (antibody, V domains shown)
VH: QVQLQQSGAELVRPGTSVKVSCKASGYAFSNYFIEWVKQRPGQGLEWIGLNIPGSGGSNYAEKFKGKATLTADKSSSTAYMQLSSLTSEDSAVYFCARRRLPPDWYFDVWGTGTTVTVSS
VL: DVVMTQSPLSLPVTLGQPASISCRSSQSLVHSDGNTYLHWYQQKPGQPPKLLIYKVSNRFSGVPDRFSGSGSGTDFTLKISRVEAEDVGVYFCSQSTHVPWTFGGGTKVEIK
modifications: human IgG1 constant regions
B8: VH4/VK3: humanized anti-PD-L2 variant; SEQ ID NO: 5/SEQ ID NO: 12 (antibody, V domains shown)
VH: QVQLVQSGAEVKKPGSSVKVSCKASGYAFSNYFIEWVKQPPGKGLEWIGLNIPGSGGSNYAEKFKGRVTITADKSTSTAYMELSSLRSEDTAVYYCARRRLPPDWYFDVWGQGTTVTVSS
VL: DVVMTQSPLSLPVTLGQPASISCRSSQSLVHSGGNTYLHWYQQKPGQPPKLLIYKVSNRFSGVPDRFSGSGSGTDFTLKISRVEAEDVGVYFCSQSTHVPWTFGGGTKVEIK
B9: VH1/VK3: humanized anti-PD-L2 variant; SEQ ID NO: 2/SEQ ID NO: 12 (antibody, V domains shown)
VH: QVQLVQSGAELKKPGSSVKVSCKASGYAFSNYFIEWVKQPPGKGLEWIGLNIPGSGGSNYAEKFKGRATITADKSTSTAYMELSSLTSEDSAVYFCARRRLPPDWYFDVWGQGTTVTVSS
VL: DVVMTQSPLSLPVTLGQPASISCRSSQSLVHSGGNTYLHWYQQKPGQPPKLLIYKVSNRFSGVPDRFSGSGSGTDFTLKISRVEAEDVGVYFCSQSTHVPWTFGGGTKVEIK
B10: VH3/VK3: humanized anti-PD-L2 variant; SEQ ID NO: 4/SEQ ID NO: 12 (antibody, V domains shown)
VH: QVQLVQSGAEVKKPGSSVKVSCKASGYAFSNYFIEWVKQPPGKGLEWIGLNIPGSGGSNYAEKFKGRVTITADKSTSTAYMELSSLRSEDSAVYFCARRRLPPDWYFDVWGQGTTVTVSS
VL: DVVMTQSPLSLPVTLGQPASISCRSSQSLVHSGGNTYLHWYQQKPGQPPKLLIYKVSNRFSGVPDRFSGSGSGTDFTLKISRVEAEDVGVYFCSQSTHVPWTFGGGTKVEIK
B11: VH2/VK1: humanized anti-PD-L2 variant; SEQ ID NO: 3/SEQ ID NO: 10 (antibody, V domains shown)
VH: QVQLVQSGAEVKKPGSSVKVSCKASGYAFSNYFIEWVKQPPGKGLEWIGLNIPGSGGSNYAEKFKGRATITADKSTSTAYMELSSLRSEDSAVYFCARRRLPPDWYFDVWGQGTTVTVSS
VL: DVVMTQSPLSLPVTLGQPASISCRSSQSLVHSDGNTYLHWYQQKPGQPPKLLIYKVSNRFSGVPDRFSGSGSGTDFTLKISRVEAEDVGVYFCSQSTHVPWTFGGGTKVEIK
B12: VH3/VK1: humanized anti-PD-L2 variant; SEQ ID NO: 4/SEQ ID NO: 10 (antibody, V domains shown)
VH: QVQLVQSGAEVKKPGSSVKVSCKASGYAFSNYFIEWVKQPPGKGLEWIGLNIPGSGGSNYAEKFKGRVTITADKSTSTAYMELSSLRSEDSAVYFCARRRLPPDWYFDVWGQGTTVTVSS
VL: DVVMTQSPLSLPVTLGQPASISCRSSQSLVHSDGNTYLHWYQQKPGQPPKLLIYKVSNRFSGVPDRFSGSGSGTDFTLKISRVEAEDVGVYFCSQSTHVPWTFGGGTKVEIK
B13: VH1/VK2: humanized anti-PD-L2 variant; SEQ ID NO: 2/SEQ ID NO: 11 (antibody, V domains shown)
VH: QVQLVQSGAELKKPGSSVKVSCKASGYAFSNYFIEWVKQPPGKGLEWIGLNIPGSGGSNYAEKFKGRATITADKSTSTAYMELSSLTSEDSAVYFCARRRLPPDWYFDVWGQGTTVTVSS
VL: DVVMTQSPLSLPVTLGQPASISCRSSQSLVHSDGNTYLHWYQQKPGQPPKLLIYKVSNRFSGVPDRFSGSGSGTDFTLKISRVEAEDVGVYYCSQSTHVPWTFGGGTKVEIK
B14: VH8/VK3: humanized anti-PD-L2 variant; SEQ ID NO: 8/SEQ ID NO: 12 (antibody, V domains shown)
VH: QVQLVQSGAEVKKPGSSVKVSCKASGYAFSNYFIEWVKQPPGKGLEWIGLNIPGSGGSNYAEKFKGRATITADKSTSTAYMELSSLRSEDTAVYYCARRRLPPDWYFDVWGQGTTVTVSS
VL: DVVMTQSPLSLPVTLGQPASISCRSSQSLVHSGGNTYLHWYQQKPGQPPKLLIYKVSNRFSGVPDRFSGSGSGTDFTLKISRVEAEDVGVYFCSQSTHVPWTFGGGTKVEIK
B15: VH4/VK1: humanized anti-PD-L2 variant; SEQ ID NO: 5/SEQ ID NO: 10 (antibody, V domains shown)
VH: QVQLVQSGAEVKKPGSSVKVSCKASGYAFSNYFIEWVKQPPGKGLEWIGLNIPGSGGSNYAEKFKGRVTITADKSTSTAYMELSSLRSEDTAVYYCARRRLPPDWYFDVWGQGTTVTVSS
VL: DVVMTQSPLSLPVTLGQPASISCRSSQSLVHSDGNTYLHWYQQKPGQPPKLLIYKVSNRFSGVPDRFSGSGSGTDFTLKISRVEAEDVGVYFCSQSTHVPWTFGGGTKVEIK
B16: VH8/VK1: humanized anti-PD-L2 variant; SEQ ID NO: 8/SEQ ID NO: 10 (antibody, V domains shown)
VH: QVQLVQSGAEVKKPGSSVKVSCKASGYAFSNYFIEWVKQPPGKGLEWIGLNIPGSGGSNYAEKFKGRATITADKSTSTAYMELSSLRSEDTAVYYCARRRLPPDWYFDVWGQGTTVTVSS
VL: DVVMTQSPLSLPVTLGQPASISCRSSQSLVHSDGNTYLHWYQQKPGQPPKLLIYKVSNRFSGVPDRFSGSGSGTDFTLKISRVEAEDVGVYFCSQSTHVPWTFGGGTKVEIK

Target: T1, human PD-L2 antigen
Assay: Single cycle kinetics on Biacore 8K, binding to human PD-L2 antigen
Details: Table 2, cell culture supernatants
Source text: Table 2: Single cycle kinetic parameters of chimeric (VH0/VK0) and humanized variants (tested as cell culture supernatants) binding to human PD-L2 antigen as determined using the Biacore 8K. As used herein, the term “KD” is intended to refer to the dissociation equilibrium constant of a particular antibody-antigen interaction, ka is the binding rate constant and kd is the dissociation rate constant. The binding affinity of antibodies of the disclosed invention may be measured or determined by standard antibody-antigen assays. The relative KD was calculated by dividing the KD of the humanized variant by that of the VH0/VK0 assayed in the same experiment.

| Molecule | kd [s⁻¹] |
| --- | --- |
| B1 | 0.00011 |
| B2 | 0.000122 |
| B3 | 0.000414 |
| B4 | 0.000344 |
| B5 | 0.000132 |
| B6 | 0.000113 |
| B7 | 9.88e-05 |
| B8 | 0.000466 |
| B9 | 0.000365 |
| B10 | 0.000497 |
| B11 | 0.000119 |
| B12 | 0.000128 |
| B13 | 0.000116 |
| B14 | 0.000388 |
| B15 | 0.000125 |
| B16 | 0.00012 |
